Measurements as given in article PMC9584609.

How the values were obtained:
[1] = molecular target: ClC-2 tagged with mVenus and PAmCherry (human) (UniProt P51788); assay: native gel or EMSA; high-resolution clear native electrophoresis (hrCNE); lysate of transfected HEK293T cells in 0.1 M sodium phosphate with 0.5% digitonin or 20 mM DDM; 4-14% acrylamide gradient gel run at 4 °C; mVenus fluorescence scanned; VGLUTs and sialin with and without PNGaseF
[2] = molecular target: bClC-K tagged with mVenus and PAmCherry (Bos taurus); assay: as above

Chain of ClC-2 tagged with mVenus and PAmCherry (P51788 2-898): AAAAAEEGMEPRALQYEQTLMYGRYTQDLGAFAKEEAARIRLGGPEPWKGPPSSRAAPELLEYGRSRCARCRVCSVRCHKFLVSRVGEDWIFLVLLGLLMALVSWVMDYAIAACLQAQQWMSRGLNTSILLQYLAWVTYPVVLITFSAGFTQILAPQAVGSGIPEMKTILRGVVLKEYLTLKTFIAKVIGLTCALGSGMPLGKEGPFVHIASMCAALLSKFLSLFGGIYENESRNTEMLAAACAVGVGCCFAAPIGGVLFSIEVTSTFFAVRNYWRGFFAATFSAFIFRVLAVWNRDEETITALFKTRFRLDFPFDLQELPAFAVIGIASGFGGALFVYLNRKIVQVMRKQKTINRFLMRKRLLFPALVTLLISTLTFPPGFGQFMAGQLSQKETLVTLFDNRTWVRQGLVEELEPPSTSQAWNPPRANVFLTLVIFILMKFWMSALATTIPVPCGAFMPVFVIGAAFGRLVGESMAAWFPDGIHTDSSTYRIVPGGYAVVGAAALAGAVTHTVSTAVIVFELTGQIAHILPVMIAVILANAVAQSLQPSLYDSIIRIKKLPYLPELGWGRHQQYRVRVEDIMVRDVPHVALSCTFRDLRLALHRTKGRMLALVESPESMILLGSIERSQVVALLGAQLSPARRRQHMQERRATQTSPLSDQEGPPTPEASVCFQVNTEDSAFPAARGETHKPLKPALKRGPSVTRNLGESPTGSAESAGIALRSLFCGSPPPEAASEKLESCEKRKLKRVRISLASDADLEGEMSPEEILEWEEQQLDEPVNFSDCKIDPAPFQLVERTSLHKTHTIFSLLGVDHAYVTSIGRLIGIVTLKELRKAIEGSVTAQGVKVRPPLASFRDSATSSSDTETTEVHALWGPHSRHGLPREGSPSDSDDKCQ

“ClC-2 tagged with mVenus and PAmCherry (from UniProt P51788 1-898) (natural protein)” was tested. Which stoichiometry N [1] did it give?
Its stoichiometry N is 2.

“bClC-K tagged with mVenus and PAmCherry (natural protein)” was tested. Which stoichiometry N [2] did it give?
The stoichiometry N was 2.
